Assay results reported in US20210094999A1.

Experiments:
[1] = target: insulin receptor-A on CHO-hIR cells (human) (UniProt P06213); experiment: cell-based or functional assay
[2] = target: solubilised human insulin receptor isoform A (IR-A) (human) (UniProt P06213); experiment: competition SPA on solubilised human IR-A against [125I-TyrA14]-human insulin; affinity relative to human insulin

Substance | % maxERK/% maxAKT [1] | Elisa hIR pY1158 max (% of human insulin) (% of human insulin) [1] | hIR binding IC50 (% of human insulin) (% of human insulin) [2]
[TyrB5,GlyB26],des-ThrB30-Insulin (ligand) | 0.82 | 93 | –
Insulin lispro (ligand) | – | 104 | –
N{Epsilon-B29}-tetradecanoyl-[TyrB5],des-ThrB30-Insulin (ligand; Lys B29: N-epsilon acylated with C14 (tetradecanoyl), no linker) | 0.66 | 40 | –
N{Epsilon-B28}-[(4S)-4-carboxy-4-(17-carboxyheptadecanoylamino)butanoyl]-[TyrB5,LysB28],des-(B29-B30)-Insulin (ligand; Lys B28: N-epsilon acylated with C18 diacid-gGlu) | 0.37 | 19 | –
N{Epsilon-B29}-[(4S)-4-carboxy-4-(15-carboxypentadecanoylamino)butanoyl]-[TyrB5,AlaB26],des-ThrB30-Insulin (ligand; Lys B29: N-epsilon acylated with C16 diacid-gGlu) | 0.3 | 13 | –
N{Epsilon-B26}-[2-[2-[2-[[2-[2-[2-[[(4S)-4-carboxy-4-(17-carboxyheptadecanoylamino)butanoyl]amino]ethoxy]ethoxy]acetyl]amino]ethoxy]ethoxy]acetyl]-[TyrB5,LysB26],des-(B27-B30)-Insulin (ligand; Lys B26: N-epsilon acylated with C18 diacid-gGlu-2xOEG) | 0.41 | 24 | –
N{Epsilon-B28}-15-carboxypentadecanoyl-[TyrB5,LysB28],des-(B29-B30)-Insulin (ligand; Lys B28: N-epsilon acylated with C16 diacid, no linker) | 0.38 | 32 | –
N{Epsilon-B28}-17-carboxyheptadecanoyl-[PheB5,LysB28],des-(B29-B30)-Insulin (ligand; Lys B28: N-epsilon acylated with C18 diacid, no linker) | 0.31 | 10 | –
N{Epsilon-B28}-[(4S)-4-carboxy-4-(15-carboxypentadecanoylamino)butanoyl]-[TyrB5,LysB28],des-(B29-B30)-Insulin (ligand; Lys B28: N-epsilon acylated with C16 diacid-gGlu) | 0.47 | 43 | –
N{Epsilon-B29}-[(4S)-4-carboxy-4-(15-carboxypentadecanoylamino)butanoyl]-[TyrB5],des-ThrB30-Insulin (ligand; Lys B29: N-epsilon acylated with C16 diacid-gGlu) | 0.84 | 58 | –
[TyrB5,AlaB26],des-ThrB30-Insulin (ligand) | 0.85 | 132 | –
N{Epsilon-B26}-[2-[2-[2-[[(4S)-4-carboxy-4-(17-carboxyheptadecanoylamino)butanoyl]amino]ethoxy]ethoxy]acetyl]-[TyrB5,LysB26],des-(B27-B30)-Insulin (ligand; Lys B26: N-epsilon acylated with C18 diacid-gGlu-OEG) | 0.27 | 20 | –
N{Epsilon-B28}-17-carboxyheptadecanoyl-[TyrB5,GlyB26,LysB28],des-(B29-B30)-Insulin (ligand; Lys B28: N-epsilon acylated with C18 diacid, no linker) | 0.07 | 3 | –
N{Epsilon-B28}-[2-[2-[2-(17-carboxyheptadecanoylamino)ethoxy]ethoxy]acetyl]-[TyrB5,LysB28],des-(B29-B30)-Insulin (ligand; Lys B28: N-epsilon acylated with C18 diacid-OEG) | 0.48 | 31 | –

The remaining lines, values ahead:

% maxERK/% maxAKT [1] | Elisa hIR pY1158 max (% of human insulin) (% of human insulin) [1] | hIR binding IC50 (% of human insulin) (% of human insulin) [2] | Substance
0.29 | 14 | – | N{Epsilon-B28}-[(4R)-4-[(3R,10S,13R,17R)-3-hydroxy-10,13-dimethyl-2,3,4,5,6,7,8,9,11,12,14,15,16,17-tetradecahydro-1H-cyclopenta[a]phenanthren-17-yl]pentanoyl]-[TyrB5,LysB28],des-(B29-B30)-Insulin (ligand; Lys B28: N-epsilon acylated with lithocholic acid, no linker)
0.84 | 93 | – | [TyrB5,LysB28],des-(B29-B30)-Insulin (ligand)
0.32 | 25 | – | N{Epsilon-B28}-[(4S)-4-carboxy-4-[[(4R)-4-[(3R,10S,13R,17R)-3-hydroxy-10,13-dimethyl-2,3,4,5,6,7,8,9,11,12,14,15,16,17-tetradecahydro-1H-cyclopenta[a]phenanthren-17-yl]pentanoyl]amino]butanoyl]-[TyrB5,LysB28],des-(B29-B30)-Insulin (ligand; Lys B28: N-epsilon acylated with lithocholic acid-gGlu)
0.79 | 95 | – | Insulin aspart (ligand)
0.35 | 17 | – | N{Epsilon-B28}-17-carboxyheptadecanoyl-[TyrB5,LysB28],des-(B29-B30)-Insulin (ligand; Lys B28: N-epsilon acylated with C18 diacid, no linker)
– | 2 | – | N{Epsilon-B26}-17-carboxyheptadecanoyl-[TyrB5,LysB26],des-(B27-B30)-Insulin (ligand; Lys B26: N-epsilon acylated with C18 diacid, no linker)
0.85 | 104 | 79 | Insulin glargine (ligand)
0.97 | 87 | 20 | Insulin degludec (ligand)
0.2 | 6 | – | N{Epsilon-B28}-[2-[2-[2-[[(4S)-4-carboxy-4-(17-carboxyheptadecanoylamino)butanoyl]amino]ethoxy]ethoxy]acetyl]-[TyrB5,AlaB26,LysB28],des-(B29-B30)-Insulin (ligand; Lys B28: N-epsilon acylated with C18 diacid-gGlu-OEG)
0.34 | 7 | – | N{Epsilon-B28}-[2-[2-[2-[[(4S)-4-carboxy-4-(17-carboxyheptadecanoylamino)butanoyl]amino]ethoxy]ethoxy]acetyl]-[TyrB5,GlyB26,LysB28],des-(B29-B30)-Insulin (ligand; Lys B28: N-epsilon acylated with C18 diacid-gGlu-OEG)
0.19 | 8 | – | N{Epsilon-B29}-[(4S)-4-carboxy-4-(15-carboxypentadecanoylamino)butanoyl]-[TyrB5,GlyB26],des-ThrB30-Insulin (ligand; Lys B29: N-epsilon acylated with C16 diacid-gGlu)
0.27 | 10 | – | N{Epsilon-B28}-15-carboxypentadecanoyl-[TyrB5,GlyB26,LysB28],des-(B29-B30)-Insulin (ligand; Lys B28: N-epsilon acylated with C16 diacid, no linker)
0.29 | 6 | – | N{Epsilon-B29}-[(4S)-4-carboxy-4-(17-carboxyheptadecanoylamino)butanoyl]-[TyrB5,AlaB26],des-ThrB30-Insulin (ligand; Lys B29: N-epsilon acylated with C18 diacid-gGlu)
0.33 | 6 | – | N{Epsilon-B26}-[(4S)-4-carboxy-4-(17-carboxyheptadecanoylamino)butanoyl]-[TyrB5,LysB26],des-(B27-B30)-Insulin (ligand; Lys B26: N-epsilon acylated with C18 diacid-gGlu)
0.36 | 7 | – | N{Epsilon-B29}-[(4S)-4-carboxy-4-(17-carboxyheptadecanoylamino)butanoyl]-[TyrB5,GlyB26],des-ThrB30-Insulin (ligand; Lys B29: N-epsilon acylated with C18 diacid-gGlu)
0.45 | 36 | – | N{Epsilon-B28}-[(4S)-4-carboxy-4-[[(4S)-4-carboxy-4-(17-carboxyheptadecanoylamino)butanoyl]amino]butanoyl]-[TyrB5,LysB28],des-(B29-B30)-Insulin (ligand; Lys B28: N-epsilon acylated with C18 diacid-2xgGlu)
0.61 | 39 | – | N{Epsilon-B28}-[2-[2-[2-[[(4S)-4-carboxy-4-(17-carboxyheptadecanoylamino)butanoyl]amino]ethoxy]ethoxy]acetyl]-[TyrB5,LysB28],des-(B29-B30)-Insulin (ligand; Lys B28: N-epsilon acylated with C18 diacid-gGlu-OEG)
